In the DeepSol protein solubility set:

assay: soluble on expression in E. coli; label from the status in PepcDB or PDB records

Sequence | soluble on expression in E. coli
MAPLKRRKVSAPTGNENTPRSTRSIRHKREDPRGKMKPLATSTRTSSVNKKKKNDDDYENFYSGENTITTMKPVVFPKKPVIFEHGYGIEDDIEDEIDDEELDDEEYEESGNGNEDEVEEEVGVEEQEIENNFAYKKVKSEISCSPFLKEHSVHSVLTNNRAKTGTIDSKAGRTAYRKQKLREGTCCSQSNEATGDSTDRSSTSAGFDVFQHLQNRAVQKTMIEQLESAVRNQDVMEMGNVVKKGLENGTLSEIQIEEFCKHTTRPNFSILQFVQALRQSTEDEKESIQIAQMMMFKMQDPKDGNYTALAANVHTLTSKISKQLNAGCIVKRTLTMNHTISQADGFPTCNLTDIYNSELLIGGDAVSQLSNFYMVALKTMLEPSYKIWAFTYRPSCVRRVDRHFQELPQKVTTAIIEVAFDIVGVYLPVELSYGSIDREHEFIKTLGEGAELEVQRRRDERITVFKNAVEALGKAMNNLRTYHFDIAKGALFNCNKPSYCEHHLKWGQVRKFREQHQRMETSPEEVIRFATGQRNEHDVSAAGRSVKDSTH | not soluble
MKLGVVTRKGKRQDDIRMFSQFFEVKVYEIPEELPELIDEPAEILRLPDDFDVDMIVSFAAHPDINLELIKQAAERGIGLVIISGGAKGGAYKQLKEEGEKRGVRVVWEEICCATPKVEDERTREFFEHFGAPEVEVEVENGKVKDVRVKRSAFCGATYYVAEKIKGLSVEEAPTKAGYYTQIYPCLAPRGHEGGIHKAARAHKRAVEKAIEKSK | not soluble
STAIDGQGKDQVIFVTKEEHETPSTVKQEEEDTNEDPKGKGLILPTGEINWDCPCLGGMASGVCGEQFKSAFTCFHFSQEEVKGSDCLEQFISMQECFHQHPELFPQDNNDLQTADPDQEHSSSISDFTTNKESDSLPTETDEIPTQLPVVS | soluble
MGSDKIHHHHHHMILSKTGIRHKEDLVPPANGVDVGIIKIGDGRVMSVTTDPFYFDPVFGYEDSAWFAYHILASDLLTSGANPDYMTVDLNLPLSMTDEEISRMWNAFTEEAARFGTSIITGHTARYAGTSFPMIGGITAMGFIGEDEYVTSAMARPGDKVVLTKTPAIEAAALLTRLFPGTIKAKLGDELFSYGVDLFRKLTTVHESLVCKRFGLRTRVTAMHDVTEGGLLGALFEIADSSGNGIRIHEDSIKVDDYVKRVCSIFSIDPLMAISEGALLITVKPDHAEDLVSSLKANGIDANVIGEMTADPSERIIVGREKRTIGPPQKDPFWTAVEFGISEDWK | not soluble
MGSDKIHHHHHHMLSIERQCQCMQLLIETFTVPIEIRALKTANIYRLETDDSAFLIDSGMSDNSIKSIEQNLKKIDFVFITHLHIDHLGGVLYLHEKYGIPAYMNHLDLDLIMNANEDRDGYIKRHSEIFRVNGVPPSMVEEIITMHPVIRYFDYYSKLDFVQDYRKINASGIKFVEVPGHSPGSTAVYIEDSRDLFAGDHILDRITPNIAVYGDEDDLGNYLESLEKVRAMKVDRIFPGHGNVITEPKIRIDDIEKHHHDRMRAIIAALKSPKTAYEVARDITWSKGRKMDTMNFMERNFAILETVSHLKHMDRKGMVRRIEENGIIKYSYIQ | not soluble
MEKSAGRGRPSVSVERIVATALEAVDEVGAQAFNMRMLAERLGSGTATLYRHFASKDEILIYVVDSVLGELLADQPEAVELVPQGQGSEGYSWQKACASGAERLYGVLRRHPGILPLLVSQIPIGPNGLKRREQGIALFLANGFPAELAARAYTSVAHYVLGFAIQQHSSASSEAAEGEELVEFFAALDASEYPAIATAGRHLPGISVEEEFRFGLKLIIDGLELAASAWRKADGC | not soluble
KGGWFGKHRGQGGSNPKFENIAEGLRALLARSHVERTTDEGTWVAGVFVYGGSKTSLYNLRRGTALAIPQCRLTPLSRLPFGMAPGPGPQPGPLRESIVCYFMVFLQTHIFAEVLKDAIKDLVMTKPAPTCNIRVTVCSFDDGVDLP | soluble
MNDMRQITNLGRNIENKSFSIIDEEAGPHSFAQEEWEVVRRIIHATADFDYKNITKIHPQAIDSGIQALKKGCPIVCDVQMILSGLNPERLKVYGCKTYCFISDEDVIENAKRKNSTRAIESIQKANSFNLLNESIIVIGNAPTALLEIEKLIRQEGIKPALIVGVPVGFVSAKESKESILKLEYYNVTSIPYILTMGRKGGSTIAVAILHALLLLSSKRGERLEHHHHHH | soluble
MNLPSKFHQVTITDPIAGAGITFTIPTRYVNLKFLNVGAQGIVVMADDLVTTQRVAIKKMQQPFLLTMSARRAYREFILLTTLKHPNIIRLLNAFTPDTSLSSFQEVYLVMEFMTHNLHEVIHRLRLDHETLSFLVYQSLCAIKHLHNLGFIHRDLKPSNIVVNERCVLKVLDFGLARRRNVDMRMSDYVGTRYYRAPEVILGLNYSEKVDIWSVGCILAEMINHTVLFPGKDIRDQWTQISSVLRTPDDHFINQLEPIGAVYVRSLPQHLARAFNEIVPDSNFLPETENPKDHLTLHMARDLLFNMLKINPEERYSVEDALNHPYTMVQGR | not soluble
SADLLALLRDFTIHNREIKEDGDDIIFDNYAWNKSSKTNYIVWGTDKHGLIKEYYPLESIVYFLKNINLSHAQFVRQAAANGIFGIRLPDRQKLLDYLQGKITTCEAIDHSVPVDISQRRLVILQNNDKDPNDATGEPSSKRLCLEDGNSIDMANEGHSTDQQNEINLKESQRLAAKLQLPPGGKMTSDLYQNDPSKASTLIEHIPVDKIQMLRAKFRANHQQTIKPDESDVVPDKGKPLKSAIDAEEPIKPFVSKIQLGVTKNFVKEIMAREYTWRTRTTVLESHGKQFFDSVVLGTLKSVKLKEENLQHHTQRIGPHTPFPASNGHAGNVQQPAQAPTHYSRYDQERFTGAGQDTAGFKIDTMGTYHGKGLSSMMTDGSQANLTSRDPRANRQPAPRGLPPVSPGATPVDTGKGVTKANRAKSRVPIIIIPAAPTSLITMYNAKEILQDLRFEKTEDKKANGCRRDNDLLIQRLKSDGRTVPYRVIDQPNKLNREDWDRVVAVFVQGPAWQFKNWPIGSDPVEIFSLVKAFHLKYAHMPLHPDVKKWNVHVIQLDDHRHLDKANFQQIWDILDRHMV | soluble
MKKSAFIFSDGELKRKDSTVLFESEDSKNYLPIEDISDIYIFGEVTVTKKFLELATQKEILLHFYNYNEYYVGTYYPREHYNSGFMILKQAEHYLDEEKRMAIAKKFIHGSVKNMLAVLKYYNNREKDLDRQITAISDLAEKIDEMDEINKLMAIEGNIREIYYGSFDIIVDDEYFEFGKRTKQPPKNRMNSLISFGNSILYTTVLSEIYKTHLDPRIGYLHSTNHRRFTLNLDVAEIFKPIIVDRVIFTLIGKKMLGEKHFEEKAGGIVLNDKGRKQFVAQMLEKLNATLMYKPLGREVSYRRLIRLELYKLEKHLMGEQEYKPYVASW | soluble
MGSDKIHHHHHHMFKIDRLRFGTAGIPISTPKPSTIAGIERVRELGLDAMELEFVRGINIKPELAKKIKYVAEKNDIVLTAHAPYYINLNAKEKEKVEASKRRIIQSAERLYEAGGWSVVFHAGYYLKQPKESVYQKILSALKEIQKELMDKGIKVWLRPELTGKPTQFGDLKELVKLSQELELVLPAIDFAHAHARNKGKCNTEEEWREMLALIENELGREALDNMHIHISGIEYGEKGEKRHLNLEESDLKWEDLLKVLKEFRVKGVIISESPNIEGDAILMKKKWEELKI | not soluble
MAKDIYKTFKRSVSGIVGGNNINGEGSSSPSTSAPQVKYRGGTGRTWIHPPDYLINGHVEYVARFLGCVETPKANGSDVAREAIHAIRFQRDLKRSEQTRETAKLQKVEIRISIDNVIIADIKTKAPMYTFPLGRISFCADDKDDKRMFSFIARAEGASGKPSCYAFTSEKLAEDITLTIGEAFDLAYKRFLDKNRTSLENQKQIYILKKKIVELETENQVLIERLAEALRANSKADYENTGPPIYPGLGPPALPLSPMPQGPPPNIPPSSIYSMPRANDLPPTEMAPTLPQISTSSNGASPSVSPASTSPSGPAPSIPPPRPPALAPPPPVAPRRNPVVSPKNSTAGLLDGLELGSAEPAKKAPSNIFDDSFDPRAGEKKSTAAEYNPFGADFLSGIQNGKEAPPSASAELLASEAIARLPKPESSSVPPKKTAAEYDAMINEVEKKLAAMSSGSFEFGQLQTGDLGGIEGESDYGTPSDRLNPKMMNLKQ | not soluble
SLQQSAKKNAAPAPAAQPAPAPTQPQADGAQQAGWVVRCTSVSRDAPLECAMEQNAVLTKTGQTIVLINIRIAPDTRTPVALLQLPLGLNLPIGAKLQVDEGKTVDLQIQTCENRGCYASTPIAADLLAALRSGKQLKVSFQNMAKETIAIPMPLGDFAAAYDKIK | not soluble
MKKLQIAVGIIRNENNEIFITRRAADAHMANKLEFPGGKIEMGETPEQAVVRELQEEVGITPQHFSLFEKLEYEFPDRHITLWFWLVERWEGEPWGKEGQPGEWMSLVGLNADDFPPANEPVIAKLKRL | soluble
MRGSHHHHHHTDPALRALGLKQVHHIAIIATDYAVSKAFYCDILGFTLQSEVYREARDSWKGDLALNGQYVIELFSFPFPPERPSRPEACGLRHLAFSVDDIDAAVAHLESHNVKCETIRVDPYTQKRFTFFNDPDGLPLELYEQGLCGR | soluble
MGSDKIHHHHHHMADTFLFRVHRSQILPALNAVFEAVDPRSNIPILQNVLLSPNAERLRLSGTNMTVEVETSCDLLESASGNPLTLSGKALLDIVKSFSEVAEIEFSFDDLRGQVRVKSGRSRFLLATLHADQFPTIASLASGKSVAVDMPSLISAIARVKYALFDHKDRAYLSGIFIHPEEGENKIAVVAADGHNLAVVRFPCEAGTTFPGAIIPIKAIDAIRRLFGETKASAQVKISDEMIQICCHDVRLTSKLIDAVYPDYDVAIPKDNTSRIIVDAKHLINAVHRVCLVKKDDKRDTIKLVGSNGMLQVSMAATDGEEAVEEIAAEYNGPQIRIGFNGDYLKDALSSIKTTDVAINLLTESSPGLLTPTVGTDELYVVYPRVLPHD | not soluble
MGSDKIHHHHHHMKRINRFAVQIDVEGRTELAHLHDPGRLLEIVYPGNEVLVRRTDGPKLKWRIEFGKINGRYVLIDSGLHSDIARRFLPEGAVPEVRVGRKRIDFRYGDDYIEVKGCTLMANGIAMFPDAPTKRGLEHLKTLETLASSGYRSHVMMIITRDDVRCFYPNFETDPKFAEAFLRLVPAYVKAHFLTFGFDGLYLRYAGSIGLCADVGHGTNGRL | not soluble
MAFELPALPYAKDALEPHISAETLDFHHGKHHNTYVVKLNGLIPGTEFENKSLEEIIKTSTGGIFNNAAQVWNHTFYWHCLSPNGGGEPTGAVAEAINAAFGSFADFKAKFTDSAINNFGSSWTWLVKKADGTLAITNTSNAATPLTEEGVTPLLTVDLWEHAYYIDYRNVRPDYMNGFWALVNWDFVAQNLAK | not soluble
PNSPINKLVLNDIGPQIPIHGLRRIAKYAGKAPDFKSLEEAKQHFKASYADFGITNEKQWDIFTKNSVEQRGPNLYVTKMDPAIKKSKSILQIISEFFRHPHKALEGIFYDINLWSIWKQIKCPVIVIHGVNSDILTSEIITQMKKTHALTEVYEVENAGHAPALLDLTVHQRIEDWLATH | not soluble
